From paper PMC10863849, “A kinesin-13 family kinesin in Trypanosoma brucei regulates cytokinesis and cytoskeleton morphogenesis by promoting microtubule bundling” (PLOS Pathogens, 2024)

Key:
Experiment in all cases: native gel or EMSA; blue native gel electrophoresis (NativePAGE Novex 3-12% Bis-Tris), 225 ng purified recombinant protein in BRB80-DTT buffer plus 5% glycerol, silver-stained; oligomer size read from band mobility
[1] = biological target: recombinant hexahistidine-tagged full-length KIN13-5 (a.a. 1-719) (T. brucei)
[2] = biological target: recombinant hexahistidine-tagged KIN13-1 (T. brucei)
[3] = biological target: KIN13-5 CC-deletion mutant (a.a. 1-642), hexahistidine-tagged (T. brucei)
[4] = biological target: KIN13-5 SAM domain-deletion mutant (a.a. 71-719), hexahistidine-tagged (T. brucei)
GST = biological target: GST
[5] = biological target: motor domain of KIN13-5 (a.a. 170-536), hexahistidine-tagged (T. brucei)
[6] = biological target: GST-fused TbSpef1 (full-length TbSpef1 with N-terminal GST) (T. brucei)
[7] = biological target: the molecule itself

recombinant hexahistidine-tagged full-length KIN13-5 (a.a. 1-719) (natural protein)
stoichiometry N [1]: 8

recombinant hexahistidine-tagged KIN13-1 (natural protein)
stoichiometry N [2]: 2

KIN13-5 CC-deletion mutant (a.a. 1-642), hexahistidine-tagged (domain or fragment)
stoichiometry N [3]: 2

KIN13-5 SAM domain-deletion mutant (a.a. 71-719), hexahistidine-tagged (domain or fragment)
stoichiometry N [4]: 4

GST (natural protein)
stoichiometry N (GST): 2

motor domain of KIN13-5 (a.a. 170-536), hexahistidine-tagged (domain or fragment)
stoichiometry N [5]: 4

GST-fused TbSpef1 (full-length TbSpef1 with N-terminal GST) (natural protein)
stoichiometry N [6]: 4

B1: recombinant hexahistidine-tagged KIN-G (natural protein)
chain: MAKPLSGKAAPKNISVFLRVRPPVPRELKGGTFNNLVCDPSDPQRVTITRGGSARKGTKSFLFNRVFDPECTQQTIYNEVARGAVDAAFDGQHGVLFVYGQTGSGKTFTISNNDPEKPGVLQQSLRDIWDRFQADTEYDYSCTVSYVQLYNEMLTDLLDPQGGRVRIQLGPEGRGDVVLVTEASGASIERKVESYEDCLKYFYEGMDRKEMTSTKMNNTSSRSHTVFNFNLTRSAKVKTVDLSSAKANNEPVIALQGRLVVCDLAGSERASRTNAEGKTLDEATHINGSLLVLGKVVAALTESGSQHAPFRESKLTRILQYSLLGNGNTSIVVNCSPCDDSTEETLGAIMFGQRAIQIKQDAKRHEILDYKALYYQLLADLDSKNDRTLETALSEERTAYEDRIRVLEERIKILTSENDMLRRESSQLGGTGPVSGTSTASGAAAAAVAMGGDDANDWRSLTMKMRRAIEKLDADLKRTDKERVELAQFLALEKNKVNVLAQKLRAESLKHIMENKELTQRVTELSIDNAKLKGTDYISFQPSAACEDALPLSLDSPRRGTPSSGLSQSINVGDAYLQEQLDKANRQLRVLNEERVELIVYQMMASKAIRLLHAEKTSLANHLEKLKA
stoichiometry N [7]: ~4
